According to patent publication US20200299408A1 (Genentech, published 2020):
Where “and” joins values, the source holds several entries; their conditions need not be identical. Equal entries are not always repeated. Each block holds one binder with its values, some of them ahead of it.

Key:
[1] = biological target: T1, HER2 extracellular domain (ECD) (UniProt P04626 23-652, limits assumed); assay: HER2 binding affinity of the HER2 arm; assay and form of HER2 not stated on the sheet or in the legend
T1 construct: extracellular domain; also called soluble HER2 extracellular domain; HER2 ECD

human HER2 on cells [2] = biological target: T2, human HER2 on cells (human, UniProt P04626 23-1255); assay: cell-based or functional assay
[3] = biological target: T1, HER2 extracellular domain (ECD); assay: HER2 KD relative to 4D5 (WT); assay not stated
[4] = biological target: T3, single chain human CD3ε-26mer-CD3γ (CD3εγ) (human); assay: Biacore, human CD3εγ on chip, TDB in flow through
T3 construct: also called human CD3εγ
T3 chain: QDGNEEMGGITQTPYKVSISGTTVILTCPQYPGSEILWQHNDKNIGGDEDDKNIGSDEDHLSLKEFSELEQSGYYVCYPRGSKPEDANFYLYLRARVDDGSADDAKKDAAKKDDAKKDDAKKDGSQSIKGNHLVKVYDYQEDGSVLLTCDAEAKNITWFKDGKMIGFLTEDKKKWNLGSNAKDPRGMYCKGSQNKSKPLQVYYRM

human CD3 on T cells = biological target: T4, human CD3 on T cells (human, UniProt P07766 22-207); assay: FACS on Jurkat cells (CD3); EC50 table for the curves of FIGS. 21A-21B; source E. coli
T4 construct: whole, on cells; On cells CD3ε stands in the CD3/TCR complex; also called CD3 antigen; CD3ε
Experimental: Binding affinities for the each of the CD3/CD20 TDBs were tested by Biacore or FACS analysis, as described above for the anti-CD3 antibodies. Briefly, for Biacore binding assays, human CD3εγ was immobilized on Biacore Series S CM5 sensor chip using the amine coupling kit from Biacore and CD3/CD20 TDBs or Fab variants thereof were in the flow through. For FACS binding assays, either Bjab cells (for B cell antigens) or Jurkat cells (for CD3 antigen) were incubated with various concentrations of TDB antibodies at 4° C. for 30 minutes, then cells were washed and incubated with 2nd antibody (anti-huIgG-PE; BD Bioscience) for another 15 minutes, before cells were washed again and ready for FACS analysis.

human HER2 on cells [5] = biological target: T2, human HER2 on cells; assay: KD (nM) box at the right of the FACS panels; method and antigen form are not stated on the sheet; taken as affinity of the HER2 arm, since the three TDBs differ only in it
murine CD3 = biological target: T5, murine CD3 (mouse, UniProt P22646 22-189); assay: Biacore, monovalent KD of the CD3 arm; CD3 antigen not named on the sheet (reactivity mouse)
T5 construct: also called mouse CD3
T5 sequence (P22646 22-189): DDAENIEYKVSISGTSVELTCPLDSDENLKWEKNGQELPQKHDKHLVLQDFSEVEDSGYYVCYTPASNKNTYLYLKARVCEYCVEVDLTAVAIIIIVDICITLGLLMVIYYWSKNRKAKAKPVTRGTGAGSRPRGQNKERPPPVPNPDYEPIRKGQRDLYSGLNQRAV

- Kd [1]: 60 nM
- KD fold [3]: 120 fold
B1: hu4D5.Y100A (bispecific antibody, V domains shown)
VH 1: not shown
VL 1: not shown
VH 2: EVQLVQSGAEVKKPGASVKVSCKASGYTFTNYYIHWVRQAPGQGLEWIGWIYPGDGNTKYNEKFKGRATLTADTSTSTAYLELSSLRSEDTAVYYCARDSYSNYYFDYWGQGTLVTVSS
VL 2: DIVMTQSPDSLAVSLGERATINCKSSQSLLNSRTRKNYLAWYQQKPGQPPKLLIYWASTRESGVPDRFSGSGSGTDFTLTISSLQAEDVAVYYCTQSFILRTFGQGTKVEIK
notes: not the same molecule as m28, which has the UCHT1v9 arm; also called hu4D5.Y100A-40G5c HER2-TDB
- EC50 of SKBR3 target cell killing (human HER2 on cells [2]): > 10 µg/mL

- Kd (human HER2 on cells [5]): 190 nM
B3: hu4D5.Y100A/UCHT1v9 TDB (bispecific antibody, V domains shown)
VH 1: not shown
VL 1: not shown
VH 2: EVQLVESGGGLVQPGGSLRLSCAASGYSFTGYTMNWVRQAPGKDLEWVALINPYKGVSTYNQKFKDRFTISVDKSKNTAYLQMNSLRAEDTAVYYCARSGYYGDSDWYFDVWGQGTLVTVSS
VL 2: DIQMTQSPSSLSASVGDRVTITCRASQDIRNYLNWYQQKPGKAPKLLIYYTSRLESGVPSRFSGSGSGTDYTLTISSLQPEDFATYYCQQGNTLPWTFGQGTKLELK
notes: also called hu4D5.Y100A-TDB

More lines, now with the values behind:

B2: 40G5c Ecoli (bispecific antibody, V domains shown)
VH 1: EVQLVESGGGLVQPGGSLRLSCAASGYTFTSYNMHWVRQAPGKGLEWVGAIYPGNGDTSYNQKFKGRFTISVDKSKNTLYLQMNSLRAEDTAVYYCARVVYYSNSYWYFDVWGQGTLVTVSS
VL 1: DIQMTQSPSSLSASVGDRVTITCRASSSVSYMHWYQQKPGKAPKPLIYAPSNLASGVPSRFSGSGSGTDFTLTISSLQPEDFATYYCQQWSFNPPTFGQGTKVEIK
VH 2: EVQLVQSGAEVKKPGASVKVSCKASGYTFTNYYIHWVRQAPGQGLEWIGWIYPGDGNTKYNEKFKGRATLTADTSTSTAYLELSSLRSEDTAVYYCARDSYSNYYFDYWGQGTLVTVSS
VL 2: DIVMTQSPDSLAVSLGERATINCKSSQSLLNSRTRKNYLAWYQQKPGQPPKLLIYWASTRESGVPDRFSGSGSGTDFTLTISSLQAEDVAVYYCTQSFILRTFGQGTKVEIK
modifications: E. coli-produced (aglycosylated) full-length knob-into-hole IgG; constant regions are not in the letters.
notes: E. coli material, aglycosylated; also called CD3/CD20 TDB 2H7v16/40G5c produced in E. coli
- Kd [4]: 71.5 nM
- koff [4]: 0.0256 s⁻¹
- kon [4]: 358000 M⁻¹ s⁻¹
- EC50 (human CD3 on T cells): 1.85 µg/mL and ~12 nM

B4: 2C11 (antibody, V domains shown)
VH: EVQLVESGGGLVQPGKSLKLSCEASGFTFSGYGMHWVRQAPGRGLESVAYITSSSINIKYADAVKGRFTVSRDNAKNLLFLQMNILKSEDTAMYYCARFDWDKNYWGQGTMVTVSS
VL: DIQMTQSPSSLPASLGDRVTINCQASQDISNYLNWYQQKPGKAPKLLIYYTNKLADGVPSRFSGSGSGRDSSFTISSLESEDIGSYYCQQYYNYPWTFGPGTKLEIK
- Kd (murine CD3): 22 nM
